Assay results: publication PMC314469, “Protein Interaction Networks by Proteome Peptide Scanning” (PLoS Biology, 2004)

T1: Yhr016c SH3 (YSC84_YEAST), P32793
T1 chain: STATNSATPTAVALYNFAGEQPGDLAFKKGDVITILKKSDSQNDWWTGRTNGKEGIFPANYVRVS

T2: Yfr024 SH3 (LSB3_YEAST), P43603
T2 chain: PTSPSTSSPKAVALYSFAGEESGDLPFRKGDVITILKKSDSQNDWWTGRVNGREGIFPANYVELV

T3: Boi1 SH3 (BOI1_YEAST), P38041
T3 chain: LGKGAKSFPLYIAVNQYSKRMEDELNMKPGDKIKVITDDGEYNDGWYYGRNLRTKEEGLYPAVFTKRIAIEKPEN

T4: Boi2 SH3 (BOI2_YEAST), P39969
T4 chain: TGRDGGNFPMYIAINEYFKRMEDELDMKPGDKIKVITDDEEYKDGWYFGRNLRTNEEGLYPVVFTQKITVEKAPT

T5: Rvs167 SH3 (RV167_YEAST), P39743
T5 chain: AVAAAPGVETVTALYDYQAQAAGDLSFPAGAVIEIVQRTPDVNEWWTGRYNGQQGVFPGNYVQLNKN

B1: YGR019W 339-352 (peptide)
chain: KFIPNKPYRQFNTW
B2: YMR266W 741-754 (peptide)
chain: KELPEFPIKKYHKR
B3: YAL024C 312-325 (peptide)
chain: KIMPPTPAKKVEFI
B4: YBR122C 41-54 (peptide)
chain: ITLPRRPAKKIQLG
B5: YBR089C-A 21-34 (peptide)
chain: KKDPNAPKRRLSAY
B6: YHR147C 187-200 (peptide)
chain: KFHPPEPYKGKGIY
B7: YMR022W 62-75 (peptide)
chain: KDYPLSPPKLTFTP
B8: YIL010W 28-41 (peptide)
chain: ISTPEVPKKKIKTG
B9: YLR240W 75-88 (peptide)
chain: IYTPYIPFRNSRTW
B10: YPR095C 158-171 (peptide)
chain: KHAPFIPVKPALEK
B11: YOR233W 333-346 (peptide)
chain: KERPKPPNKGDVGR
B12: YMR192W 122-135 (peptide)
chain: ITSPPLPPRADSIE
B13: YPR097W 347-360 (peptide)
chain: KKSPRLPHRNKKVT
B14: YPR052C 15-28 (peptide)
chain: KKDPNAPKRALSAY
B15: YFR019W 390-403 (peptide)
chain: ISTPPPPPKMAIPA
B16: YGR140W 421-434 (peptide)
chain: KKDPFPPPKDLLVQ
B17: YAR002W 350-363 (peptide)
chain: KISPSAPSKDSFTK
B18: YDR409W 859-872 (peptide)
chain: IVNPFIPRRPYSNV
B19: YGR020C 97-110 (peptide)
chain: KDHPYDPEKDSVLK
B20: YOR346W 673-686 (peptide)
chain: KDAPIEPPKYMGMG
B21: YPR144C 138-151 (peptide)
chain: KGAPFFPNKTFRKL
B22: YIR010W 422-435 (peptide)
chain: KALPKEPKKLLPNS

Tests used:
Experiment in all cases: SPOT array
[1] = molecular target: T1, Yhr016c SH3 (YSC84_YEAST), P32793
[2] = molecular target: T2, Yfr024 SH3 (LSB3_YEAST), P43603
[3] = molecular target: T3, Boi1 SH3 (BOI1_YEAST), P38041
[4] = molecular target: T4, Boi2 SH3 (BOI2_YEAST), P39969
[5] = molecular target: T5, Rvs167 SH3 (RV167_YEAST), P39743

Binder	normalised SPOT signal, Boehringer light units (BLU); mean over the file's lines of this peptide [1]	normalised SPOT signal, Boehringer light units (BLU); mean over the file's lines of this peptide [2]	normalised SPOT signal, Boehringer light units (BLU); mean over the file's lines of this peptide [3]	normalised SPOT signal, Boehringer light units (BLU); mean over the file's lines of this peptide [4]	normalised SPOT signal, Boehringer light units (BLU); mean over the file's lines of this peptide [5]
B1	417	1220	30.9	55.9	51.7
B2	6.2	1070	119	22	29.9
B3	682	3000	32	180	178
B4	36800	48600	150	106	13700
B5	288	241	190	46.3	151
B6	114	45.7	96.1	38.2	53.2
B7	10.6	16	73	33.9	25.5
B8	226	4970	275	23.9	0
B9	683	3280	5520	1450	474
B10	65.2	907	92	27.4	21.7
B11	60.1	326	168	23.8	10.8
B12	93200	39300	181	35.5	31300
B13	1790	7040	110	46.7	2650
B14	162	286	57	19.5	25.3
B15	189	335	110	34.4	26.6
B16	109	332	103	49.2	12.2
B17	92.4	178	160	1.3	79.2
B18	1650	7710	1120	142	650
B19	0	0	51.3	3.7	21.7
B20	99.2	43.8	119	74.7	39.9
B21	792	995	142	64.9	83.7
B22	2810	284	208	63.5	44.4
